Data on two molecules can be found in publication PMC12170185, “Dynamic RNA binding and unfolding by nonsense-mediated mRNA decay factor UPF2”.

The target of one data set is T1, UPF3B (UniProt Q9BZI7 41-262).
T1 sequence: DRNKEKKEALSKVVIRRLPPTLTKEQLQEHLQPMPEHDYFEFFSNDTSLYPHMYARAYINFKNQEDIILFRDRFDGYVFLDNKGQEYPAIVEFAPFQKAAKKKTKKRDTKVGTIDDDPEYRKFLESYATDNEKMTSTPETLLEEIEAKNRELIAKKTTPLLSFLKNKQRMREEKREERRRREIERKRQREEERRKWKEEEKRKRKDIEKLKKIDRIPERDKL
As to the kind of experiment: EMSA; excess UPF3B gives oligomers in well; FA: 25 mM HEPES pH 7.45, 150 mM NaCl, 5% glycerol, 10 nM probe, temperature not stated; EMSA: 250 nM probe in 25 mM HEPES pH 7.45, 100 mM NaCl, 5% glycerol (protein dilution buffer 300 nM [sic] NaCl, 2 mM bME or 1 mM TCEP), 1 h on ice, gel at 4 C. The following applies: protein: recombinant; label: 5' HEX; hairpin with bulges.

Data set [1] deals with T2, UPF2L (UniProt Q9HAU5 121-1227). Briefly: fluorescence anisotropy; FA: 25 mM HEPES pH 7.45, 150 mM NaCl, 5% glycerol, 10 nM probe, temperature not stated; EMSA: 250 nM probe in 25 mM HEPES pH 7.45, 100 mM NaCl, 5% glycerol (protein dilution buffer 300 nM [sic] NaCl, 2 mM bME or 1 mM TCEP), 1 h on ice, gel at 4 C. The note with it: protein: recombinant; tags: C-terminal TEV site and His6; label: 5' HEX; hairpin with bulges.

Another data set has as its target UPF2L;UPF3B (human?;human?, UniProt Q9HAU5;Q9BZI7 121-1227;41-262, |). As to the kind of experiment: EMSA; higher affinity than UPF2L alone, lower than UPF3B; FA: 25 mM HEPES pH 7.45, 150 mM NaCl, 5% glycerol, 10 nM probe, temperature not stated; EMSA: 250 nM probe in 25 mM HEPES pH 7.45, 100 mM NaCl, 5% glycerol (protein dilution buffer 300 nM [sic] NaCl, 2 mM bME or 1 mM TCEP), 1 h on ice, gel at 4 C. The following applies: protein: recombinant;recombinant; tags: C-terminal TEV site and His6;; copies: 1;1; label: 5' HEX; hairpin with bulges.

Another data set deals with T3, UPF1 (UniProt Q92900-2 115-914).
T3 sequence: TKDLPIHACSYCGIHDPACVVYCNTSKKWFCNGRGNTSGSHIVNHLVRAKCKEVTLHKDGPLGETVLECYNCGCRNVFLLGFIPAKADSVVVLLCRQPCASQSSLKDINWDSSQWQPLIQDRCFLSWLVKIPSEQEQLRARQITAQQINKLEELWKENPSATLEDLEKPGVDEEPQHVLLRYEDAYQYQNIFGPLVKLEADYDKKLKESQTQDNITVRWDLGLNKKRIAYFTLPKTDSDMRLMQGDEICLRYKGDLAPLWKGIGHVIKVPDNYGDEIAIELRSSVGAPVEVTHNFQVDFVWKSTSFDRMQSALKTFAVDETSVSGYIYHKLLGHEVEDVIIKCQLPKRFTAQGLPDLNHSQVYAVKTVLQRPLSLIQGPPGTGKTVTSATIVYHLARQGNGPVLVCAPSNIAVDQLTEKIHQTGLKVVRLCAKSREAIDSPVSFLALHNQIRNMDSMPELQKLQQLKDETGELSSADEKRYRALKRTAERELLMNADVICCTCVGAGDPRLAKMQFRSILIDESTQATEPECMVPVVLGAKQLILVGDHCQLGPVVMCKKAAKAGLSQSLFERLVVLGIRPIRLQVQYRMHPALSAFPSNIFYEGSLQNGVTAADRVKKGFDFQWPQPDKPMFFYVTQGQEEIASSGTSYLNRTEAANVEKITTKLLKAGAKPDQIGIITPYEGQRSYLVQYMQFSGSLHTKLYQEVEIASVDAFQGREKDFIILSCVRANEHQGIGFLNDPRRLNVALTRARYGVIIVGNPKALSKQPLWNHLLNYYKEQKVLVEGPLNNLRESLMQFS
As to the kind of experiment: EMSA; FA: 25 mM HEPES pH 7.45, 150 mM NaCl, 5% glycerol, 10 nM probe, temperature not stated; EMSA: 250 nM probe in 25 mM HEPES pH 7.45, 100 mM NaCl, 5% glycerol (protein dilution buffer 300 nM [sic] NaCl, 2 mM bME or 1 mM TCEP), 1 h on ice, gel at 4 C. The following applies: protein: recombinant; label: 5' HEX; hairpin with bulges.

A further data set has as its target UPF2L;UPF3B;UPF1 (human?;human?;human?, UniProt Q9HAU5;Q9BZI7;Q92900-2 121-1227;41-262;115-914, ||). Described as above. The following applies: protein: recombinant;recombinant;recombinant; tags: C-terminal TEV site and His6;;; copies: 1;1;1; label: 5' HEX; hairpin with bulges.
The target of the next data set is UPF2 MIF4G-D3;UPF3B (human?;human?, UniProt Q9HAU5;Q9BZI7 761-1054;41-262, |). The data set is described as above. The note with it: protein: recombinant;recombinant; tags: C-terminal TEV site and His6;; copies: 1;1; label: 5' HEX; hairpin with bulges.
In the next data set the target is UPF2 MIF4G-D1 (UniProt Q9HAU5 120-486). As to the kind of experiment: EMSA; no defined complex band, no remodeling; FA: 25 mM HEPES pH 7.45, 150 mM NaCl, 5% glycerol, 10 nM probe, temperature not stated; EMSA: 250 nM probe in 25 mM HEPES pH 7.45, 100 mM NaCl, 5% glycerol (protein dilution buffer 300 nM [sic] NaCl, 2 mM bME or 1 mM TCEP), 1 h on ice, gel at 4 C. The following applies: protein: recombinant; tags: C-terminal TEV site and His6; label: 5' HEX; hairpin with bulges.

Another data set concerns the target UPF2 MIF4G-D1-2 (UniProt Q9HAU5 120-757). The data set is described as above. The following applies: protein: recombinant; tags: C-terminal TEV site and His6; label: 5' HEX; hairpin with bulges.
The target of the next data set is UPF2 MIF4G-D2 (UniProt Q9HAU5 455-757). The description is as above. The note with it: protein: recombinant; tags: C-terminal TEV site and His6; label: 5' HEX; hairpin with bulges.
The target of another data set is UPF2 MIF4G-D3 (UniProt Q9HAU5 761-1054). As to the kind of experiment: EMSA; weak unquenched complex band; FA: 25 mM HEPES pH 7.45, 150 mM NaCl, 5% glycerol, 10 nM probe, temperature not stated; EMSA: 250 nM probe in 25 mM HEPES pH 7.45, 100 mM NaCl, 5% glycerol (protein dilution buffer 300 nM [sic] NaCl, 2 mM bME or 1 mM TCEP), 1 h on ice, gel at 4 C. The following applies: protein: recombinant; tags: C-terminal TEV site and His6; label: 5' HEX, 3' BHQ-1; hairpin with bulges.

Data set [2] has as its target T2, UPF2L. As to the kind of experiment: fluorescence spectroscopy (unquenching); FA: 25 mM HEPES pH 7.45, 150 mM NaCl, 5% glycerol, 10 nM probe, temperature not stated; EMSA: 250 nM probe in 25 mM HEPES pH 7.45, 100 mM NaCl, 5% glycerol (protein dilution buffer 300 nM [sic] NaCl, 2 mM bME or 1 mM TCEP), 1 h on ice, gel at 4 C. The note with it: protein: recombinant; tags: C-terminal TEV site and His6; label: 5' HEX, 3' BHQ-1; hairpin with bulges.

T2 sequence (Q9HAU5 121-1227): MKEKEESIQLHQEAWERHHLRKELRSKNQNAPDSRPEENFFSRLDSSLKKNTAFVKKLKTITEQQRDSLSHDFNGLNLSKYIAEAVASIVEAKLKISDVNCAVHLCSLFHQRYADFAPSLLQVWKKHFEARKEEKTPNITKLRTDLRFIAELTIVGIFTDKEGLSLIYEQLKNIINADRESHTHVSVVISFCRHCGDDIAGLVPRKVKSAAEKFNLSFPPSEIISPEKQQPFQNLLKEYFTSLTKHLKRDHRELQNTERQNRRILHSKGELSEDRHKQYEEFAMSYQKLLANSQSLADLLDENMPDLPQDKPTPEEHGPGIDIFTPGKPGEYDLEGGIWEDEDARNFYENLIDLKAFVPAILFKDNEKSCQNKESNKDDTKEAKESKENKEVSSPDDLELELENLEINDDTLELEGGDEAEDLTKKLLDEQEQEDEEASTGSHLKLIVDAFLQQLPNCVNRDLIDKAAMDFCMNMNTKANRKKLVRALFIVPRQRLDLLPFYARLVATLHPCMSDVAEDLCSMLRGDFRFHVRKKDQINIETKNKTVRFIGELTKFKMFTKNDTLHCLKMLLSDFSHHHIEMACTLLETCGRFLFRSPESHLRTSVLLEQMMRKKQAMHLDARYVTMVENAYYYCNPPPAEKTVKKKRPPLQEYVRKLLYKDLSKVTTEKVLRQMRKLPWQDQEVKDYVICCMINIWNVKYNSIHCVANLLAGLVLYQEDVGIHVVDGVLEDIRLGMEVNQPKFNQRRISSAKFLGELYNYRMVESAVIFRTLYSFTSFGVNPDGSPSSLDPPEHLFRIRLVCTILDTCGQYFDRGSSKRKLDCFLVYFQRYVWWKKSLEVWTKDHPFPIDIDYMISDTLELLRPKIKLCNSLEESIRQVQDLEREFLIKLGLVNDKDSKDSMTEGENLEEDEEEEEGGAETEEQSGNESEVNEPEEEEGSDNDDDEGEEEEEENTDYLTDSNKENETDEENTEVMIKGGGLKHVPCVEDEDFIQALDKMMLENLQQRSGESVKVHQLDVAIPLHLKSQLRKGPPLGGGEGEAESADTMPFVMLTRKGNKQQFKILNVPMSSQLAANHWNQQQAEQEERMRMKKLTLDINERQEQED
Chain of UPF2 MIF4G-D2 (Q9HAU5 455-757): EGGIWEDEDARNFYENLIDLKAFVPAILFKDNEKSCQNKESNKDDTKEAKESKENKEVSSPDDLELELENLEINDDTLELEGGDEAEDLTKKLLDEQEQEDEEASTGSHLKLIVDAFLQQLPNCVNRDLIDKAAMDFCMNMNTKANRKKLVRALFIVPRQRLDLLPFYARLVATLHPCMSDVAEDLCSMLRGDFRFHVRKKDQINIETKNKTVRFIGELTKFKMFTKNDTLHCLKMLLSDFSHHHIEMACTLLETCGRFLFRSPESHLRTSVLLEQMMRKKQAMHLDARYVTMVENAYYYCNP
Chain of UPF2L;UPF3B (Q9HAU5 121-1227, one chain of several): as the sequence (Q9HAU5 121-1227) above
Chain of UPF2L;UPF3B;UPF1 (Q9HAU5 121-1227, one chain of several): as the sequence (Q9HAU5 121-1227) above
Chain of UPF2 MIF4G-D3;UPF3B (Q9HAU5 761-1054, one chain of several): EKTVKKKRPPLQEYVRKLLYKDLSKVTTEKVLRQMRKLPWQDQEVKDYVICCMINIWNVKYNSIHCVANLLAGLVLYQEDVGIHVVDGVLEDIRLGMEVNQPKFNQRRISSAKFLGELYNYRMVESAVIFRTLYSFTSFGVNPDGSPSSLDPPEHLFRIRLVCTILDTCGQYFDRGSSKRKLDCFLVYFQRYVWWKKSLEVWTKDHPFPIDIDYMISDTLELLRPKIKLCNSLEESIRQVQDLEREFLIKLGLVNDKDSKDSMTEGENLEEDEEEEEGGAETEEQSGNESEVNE
Chain of UPF2 MIF4G-D3 (Q9HAU5 761-1054): as the sequence (Q9HAU5 761-1054, one chain of several) above
Chain of UPF2 MIF4G-D1 (Q9HAU5 120-486): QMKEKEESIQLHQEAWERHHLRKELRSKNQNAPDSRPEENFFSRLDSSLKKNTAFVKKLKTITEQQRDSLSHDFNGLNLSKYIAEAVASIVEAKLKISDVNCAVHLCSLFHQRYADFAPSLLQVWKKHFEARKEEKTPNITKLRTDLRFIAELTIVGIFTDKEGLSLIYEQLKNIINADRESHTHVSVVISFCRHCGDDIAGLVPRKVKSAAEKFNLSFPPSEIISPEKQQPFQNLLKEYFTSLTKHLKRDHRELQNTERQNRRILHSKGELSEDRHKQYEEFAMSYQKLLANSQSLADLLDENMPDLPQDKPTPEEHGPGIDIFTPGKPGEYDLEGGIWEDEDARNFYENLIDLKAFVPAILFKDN
Chain of UPF2 MIF4G-D1-2 (Q9HAU5 120-757): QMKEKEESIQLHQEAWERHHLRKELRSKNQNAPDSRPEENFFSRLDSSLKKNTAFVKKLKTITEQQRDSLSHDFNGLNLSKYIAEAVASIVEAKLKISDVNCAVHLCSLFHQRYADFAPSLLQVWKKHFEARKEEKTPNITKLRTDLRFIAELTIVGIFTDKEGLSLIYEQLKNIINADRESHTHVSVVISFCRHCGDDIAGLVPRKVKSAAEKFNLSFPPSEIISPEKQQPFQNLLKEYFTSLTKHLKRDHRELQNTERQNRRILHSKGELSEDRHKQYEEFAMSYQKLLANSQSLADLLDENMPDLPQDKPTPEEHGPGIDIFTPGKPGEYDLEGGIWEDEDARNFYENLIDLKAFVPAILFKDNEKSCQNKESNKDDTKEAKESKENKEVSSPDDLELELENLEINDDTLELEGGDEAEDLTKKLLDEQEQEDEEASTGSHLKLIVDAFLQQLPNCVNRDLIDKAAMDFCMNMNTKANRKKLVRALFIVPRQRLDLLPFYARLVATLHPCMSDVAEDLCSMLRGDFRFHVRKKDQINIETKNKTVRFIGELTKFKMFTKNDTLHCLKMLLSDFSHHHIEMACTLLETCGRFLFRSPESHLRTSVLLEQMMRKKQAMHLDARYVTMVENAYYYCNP

B1: 24 nt hp-RNA (structured_RNA)
RNA: CCCUGAGCUGACGCAGCACCUGGG
On to B1, for which the binding result in the data set with UPF3B is given as “binds”; in the data set with UPF2L;UPF3B, “binds”; with UPF1 it was “binds”; in the data set with UPF2L;UPF3B;UPF1 it was “binds”; in the data set with UPF2 MIF4G-D3;UPF3B, “binds”; with UPF2 MIF4G-D1, “no binding”. In addition, the binding result in the data set with UPF2 MIF4G-D1-2 and with UPF2 MIF4G-D2 was “no binding” throughout. The Kd with UPF2L [1] was found to be 223 nM.

B2: HEX_hp-RNA_BHQ molecular beacon (structured_RNA)
RNA: CCCUGAGCUGACGCAGCACCUGGG
modifications: 3' BHQ-1
Take B2: the binding result in the data set with UPF2 MIF4G-D3 and in the data set with UPF2L [2] was “binds” throughout.
